IC50 data for one molecule are collected here from patent US20210214414A1 (Pfizer, published 2021).

One assay concerns the target T1, Human SLIT1-N (human, UniProt O75093 34-1127, limits assumed).
T1 construct: domain: SLIT1-N; d2-labelled in the HTRF assay
T1 sequence (looked up): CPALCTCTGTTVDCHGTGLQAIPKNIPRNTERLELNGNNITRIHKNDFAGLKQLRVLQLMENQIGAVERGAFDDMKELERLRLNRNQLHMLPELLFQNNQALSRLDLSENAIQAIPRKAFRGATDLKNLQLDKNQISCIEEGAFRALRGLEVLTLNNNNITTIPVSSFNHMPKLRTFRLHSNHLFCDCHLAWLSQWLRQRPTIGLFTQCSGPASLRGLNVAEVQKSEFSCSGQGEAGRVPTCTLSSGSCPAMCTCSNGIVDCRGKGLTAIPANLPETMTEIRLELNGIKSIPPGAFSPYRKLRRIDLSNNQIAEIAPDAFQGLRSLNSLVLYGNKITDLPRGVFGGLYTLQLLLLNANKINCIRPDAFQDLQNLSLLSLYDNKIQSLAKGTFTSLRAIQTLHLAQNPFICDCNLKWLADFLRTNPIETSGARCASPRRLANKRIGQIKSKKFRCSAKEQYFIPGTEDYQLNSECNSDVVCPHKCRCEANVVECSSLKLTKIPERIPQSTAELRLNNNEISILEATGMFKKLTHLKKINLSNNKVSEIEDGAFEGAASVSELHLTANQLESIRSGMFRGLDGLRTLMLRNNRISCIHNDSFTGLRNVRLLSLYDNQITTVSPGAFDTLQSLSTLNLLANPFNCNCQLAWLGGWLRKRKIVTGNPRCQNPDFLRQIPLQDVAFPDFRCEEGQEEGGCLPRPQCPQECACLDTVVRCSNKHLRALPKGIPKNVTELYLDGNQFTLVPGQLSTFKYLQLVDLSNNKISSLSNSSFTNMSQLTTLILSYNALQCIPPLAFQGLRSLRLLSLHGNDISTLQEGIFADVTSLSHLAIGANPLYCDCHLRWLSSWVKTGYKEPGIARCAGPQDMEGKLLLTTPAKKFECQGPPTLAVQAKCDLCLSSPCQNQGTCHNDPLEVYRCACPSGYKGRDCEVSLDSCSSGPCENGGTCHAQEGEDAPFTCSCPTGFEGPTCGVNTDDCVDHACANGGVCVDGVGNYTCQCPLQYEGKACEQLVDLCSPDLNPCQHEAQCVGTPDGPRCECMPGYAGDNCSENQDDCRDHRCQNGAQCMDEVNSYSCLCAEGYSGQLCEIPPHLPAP
Kind of assay: HTRF competition: d2-labelled human SLIT1-N binding to human ROBO2 on HEK293 cells; geometric mean, n=3. The protocol:
(§1) After incubation, fluorescence at 665 nm and 620 nm was measured on an Envision multilabel plate reader. The HTRF Ratio was calculated as follows: fluorescence at 665 nm/fluorescence at 620 nm×10,000. […] The IC₅₀ for each SLITx-N was determined using an 11-point, 4-fold dilution series with a top concentration of 4000 nM.

The target of the next assay is T2, Human SLIT3-N (human, UniProt O75094 34-1119, limits assumed).
T2 construct: domain: SLIT3-N; d2-labelled in the HTRF assay
T2 sequence (looked up): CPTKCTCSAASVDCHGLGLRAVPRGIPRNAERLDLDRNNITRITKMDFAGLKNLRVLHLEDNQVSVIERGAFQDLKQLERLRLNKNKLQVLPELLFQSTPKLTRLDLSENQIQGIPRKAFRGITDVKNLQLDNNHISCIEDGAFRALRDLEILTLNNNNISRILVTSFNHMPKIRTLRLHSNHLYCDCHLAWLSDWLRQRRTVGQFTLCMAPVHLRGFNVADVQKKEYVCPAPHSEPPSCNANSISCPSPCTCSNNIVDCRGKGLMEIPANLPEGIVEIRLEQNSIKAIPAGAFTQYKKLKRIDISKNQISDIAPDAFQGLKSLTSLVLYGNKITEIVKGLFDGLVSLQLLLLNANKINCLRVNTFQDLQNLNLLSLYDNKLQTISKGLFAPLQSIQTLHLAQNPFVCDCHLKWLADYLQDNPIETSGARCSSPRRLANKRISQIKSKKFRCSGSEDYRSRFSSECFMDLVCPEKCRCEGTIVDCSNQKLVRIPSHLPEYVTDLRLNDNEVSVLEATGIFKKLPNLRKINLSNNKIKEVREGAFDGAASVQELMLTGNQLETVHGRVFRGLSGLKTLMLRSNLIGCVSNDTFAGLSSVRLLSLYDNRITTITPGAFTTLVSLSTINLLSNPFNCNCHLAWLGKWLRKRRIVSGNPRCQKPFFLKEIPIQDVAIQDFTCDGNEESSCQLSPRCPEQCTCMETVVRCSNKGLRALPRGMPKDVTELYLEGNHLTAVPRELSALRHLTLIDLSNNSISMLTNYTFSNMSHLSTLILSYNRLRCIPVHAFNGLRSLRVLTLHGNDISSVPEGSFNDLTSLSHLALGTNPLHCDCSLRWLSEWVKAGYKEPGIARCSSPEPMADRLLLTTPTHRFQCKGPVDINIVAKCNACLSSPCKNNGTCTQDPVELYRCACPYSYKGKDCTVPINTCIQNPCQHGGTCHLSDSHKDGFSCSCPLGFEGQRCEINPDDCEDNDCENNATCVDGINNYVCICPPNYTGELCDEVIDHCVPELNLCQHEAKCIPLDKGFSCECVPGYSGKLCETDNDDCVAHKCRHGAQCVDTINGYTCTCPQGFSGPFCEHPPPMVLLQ
Description: HTRF competition: d2-labelled human SLIT3-N binding to human ROBO2 on HEK293 cells; geometric mean, n=3. The protocol:
as §1
A general note: In TR-FRET formats the signal depends on donor and acceptor labels being close together.

Broadly, the IC50 is the point on the concentration scale where inhibition reaches its midpoint. Lower therefore signals inhibition by little substance.

B1: ROBO2-Fc 2.2 (Fc fusion)
chain: SRLRQEDFPPRIVEHPSDVIVSKGEPTTLNCKAEGRPTPTIEWYKDGERVETDKDDPRSHRMLLPSGSLFFLRIVHGRRSKPDEGSYVCVARNYLGEAVSRNASLEVALLRDDFRQNPTDVVVAAGEPAILECQPPRGHPEPTIYWKKDKVRIDDKEERISIRGGKLMISNTRKSDAGMYTCVGTNMVGERDSDPAELTVFERGGSGGSEPKSSDKTHTCPPCPAPEAAGAPSVFLFPPKPKDTLMISRTPEVTCVVVDVSHEDPEVKFNWYVDGVEVHNAKTKPREEQYNSTYRVVSVLTVLHQDWLNGKEYKCKVSNKALPAPIEKTISKAKGQPREPQVYTLPPSREEMTKNQVSLTCLVKGFYPSDIAVEWESNGQPENNYKTTPPVLDSDGSFFLYSKLTVDKSRWQQGNVFSCSVMHEALHNHYTQKSLSLSPG
notes: Labelled with Alexa Fluor 647 in the flow cytometry assay; also called ROBO-Fc 2.2; ROBO2-Fc 2.2-AF647
For B1, the IC50 with Human SLIT1-N came out at 5.9 nM; in the assay with Human SLIT3-N, 5.1 nM.
